Laboratory results from the supplement of paper PMC11136658.

Tested on: peptide library, one residue held at a place counted from the Y acceptor
Test: relative phosphorylation of the sub-library (ratio to the mean residue at this position); higher = residue favoured
How it was run: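 Every value reflects phosphorylation relative to the mean randomized residue. The sum of the 18 randomized residues, or 16 in the Ser/Thr-free library, served to normalize intensities at each position, which were then multiplied by that number. Intensities came from phosphorimaging with ImageQuant of biotinylated Tyr-centred peptides captured on streptavidin membranes after 90 min with purified recombinant kinases and 50 μM ATP plus γ-32P-ATP.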

Chain of FGFR1, construct: aa456-765, human (P11362 456-765, looked up): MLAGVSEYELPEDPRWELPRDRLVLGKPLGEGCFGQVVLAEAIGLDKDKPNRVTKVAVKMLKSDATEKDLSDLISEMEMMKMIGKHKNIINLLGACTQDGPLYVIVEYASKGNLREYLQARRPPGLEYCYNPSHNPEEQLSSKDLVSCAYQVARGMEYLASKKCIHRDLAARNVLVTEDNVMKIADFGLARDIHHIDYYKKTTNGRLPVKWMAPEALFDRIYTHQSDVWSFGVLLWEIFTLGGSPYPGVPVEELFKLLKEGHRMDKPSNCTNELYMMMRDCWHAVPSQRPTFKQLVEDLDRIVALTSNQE
Chain of FES, construct: Full length, human (P07332 whole entry, looked up): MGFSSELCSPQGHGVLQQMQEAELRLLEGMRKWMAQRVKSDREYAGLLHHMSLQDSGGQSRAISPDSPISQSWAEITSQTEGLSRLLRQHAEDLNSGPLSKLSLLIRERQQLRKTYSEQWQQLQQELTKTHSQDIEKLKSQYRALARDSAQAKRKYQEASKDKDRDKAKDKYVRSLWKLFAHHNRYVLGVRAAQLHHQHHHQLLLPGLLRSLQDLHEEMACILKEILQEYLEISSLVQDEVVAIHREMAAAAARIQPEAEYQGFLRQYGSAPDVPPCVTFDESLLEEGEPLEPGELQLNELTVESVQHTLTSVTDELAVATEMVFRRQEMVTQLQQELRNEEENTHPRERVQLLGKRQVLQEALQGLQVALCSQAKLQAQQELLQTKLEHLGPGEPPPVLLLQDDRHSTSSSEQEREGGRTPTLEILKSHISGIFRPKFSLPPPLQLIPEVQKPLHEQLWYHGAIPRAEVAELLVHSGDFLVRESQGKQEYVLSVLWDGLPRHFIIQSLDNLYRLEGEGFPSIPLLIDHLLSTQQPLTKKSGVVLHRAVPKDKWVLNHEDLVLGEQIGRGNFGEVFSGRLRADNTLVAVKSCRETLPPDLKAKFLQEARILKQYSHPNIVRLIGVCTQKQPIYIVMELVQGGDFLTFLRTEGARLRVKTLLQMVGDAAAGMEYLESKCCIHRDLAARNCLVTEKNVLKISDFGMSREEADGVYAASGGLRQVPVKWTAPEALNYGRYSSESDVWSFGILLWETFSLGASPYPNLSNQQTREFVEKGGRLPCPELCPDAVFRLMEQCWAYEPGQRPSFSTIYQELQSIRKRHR

FES, construct: Full length, human (from UniProt P07332)
relative phosphorylation
Details | at +1 | at +2 | at +3 | at +4 | at +5 | at -1 | at -2 | at -3 | at -4 | at -5
A fixed | 1.45 | 0.535 | 0.428 | 0.817 | 1.18 | 0.518 | 1.05 | 0.86 | 1.26 | 1
D fixed | 0.789 | 0.715 | 0.235 | 0.622 | 0.47 | 0.77 | 1.01 | 1.52 | 1.16 | 0.941
E fixed | 2.65 | 0.794 | 0.289 | 1 | 0.374 | 0.567 | 1.27 | 1.89 | 1.27 | 0.9
F fixed | 0.872 | 1.58 | 1.32 | 1.07 | 1.71 | 1.3 | 0.851 | 1.44 | 1.13 | 1.14
G fixed | 0.754 | 0.372 | 0.35 | 1.01 | 0.809 | 0.274 | 1.26 | 0.985 | 1.4 | 1.09
H fixed | 0.471 | 0.425 | 0.752 | 0.957 | 1.24 | 0.718 | 0.917 | 0.826 | 0.74 | 0.979
I fixed | 1.07 | 1.3 | 3.25 | 1.25 | 1.23 | 4.02 | 1.02 | 0.823 | 1.1 | 1.07
K fixed | 0.208 | 0.294 | 0.21 | 0.592 | 0.394 | 0.273 | 0.62 | 0.44 | 0.615 | 0.766
L fixed | 0.854 | 1.56 | 1.45 | 0.795 | 1.35 | 2.41 | 1.24 | 0.866 | 1.1 | 1.09
M fixed | 1.82 | 1.36 | 2.19 | 1.68 | 1.52 | 1.05 | 0.917 | 1.18 | 1.19 | 1.24
N fixed | 0.332 | 0.848 | 0.273 | 0.57 | 0.593 | 0.618 | 0.982 | 1.02 | 0.762 | 1.14
P fixed | 0.332 | 0.643 | 0.361 | 0.845 | 1.44 | 0.599 | 1.21 | 0.917 | 1.01 | 0.883
Q fixed | 0.95 | 0.552 | 0.373 | 0.858 | 0.669 | 0.412 | 1.1 | 0.702 | 1.13 | 1.18
R fixed | 0.219 | 0.379 | 0.252 | 0.946 | 0.536 | 0.228 | 0.657 | 0.536 | 0.62 | 0.854
S fixed | 1.29 | 0.819 | 0.482 | 0.923 | 0.78 | 0.432 | 0.953 | 0.924 | 0.733 | 0.777
T fixed | 1.09 | 0.867 | 0.646 | 0.831 | 1.03 | 0.784 | 0.916 | 0.806 | 0.664 | 0.821
V fixed | 1.88 | 1.26 | 2.52 | 1.1 | 1.27 | 2.19 | 1.08 | 0.942 | 0.984 | 1.05
W fixed | 0.981 | 3.69 | 2.61 | 2.14 | 1.4 | 0.835 | 0.948 | 1.32 | 1.12 | 1.08
pThr fixed | 3.64 | 1.35 | 0.346 | 0.649 | 0.307 | 1.53 | 1.21 | 1.65 | 0.946 | 0.879
pTyr fixed | 3.48 | 1.27 | 0.712 | 1.14 | 0.357 | 9.09 | 2.21 | 2.25 | 1.83 | 1.55

FGFR1, construct: aa456-765, human (from UniProt P11362)
relative phosphorylation
Details | at +1 | at +2 | at +3 | at +4 | at +5 | at -1 | at -2 | at -3 | at -4 | at -5
A fixed | 1.01 | 0.593 | 0.546 | 0.853 | 0.912 | 0.836 | 0.925 | 0.939 | 1.11 | 1.05
D fixed | 0.332 | 0.728 | 0.463 | 0.791 | 1.17 | 2.09 | 1.05 | 1.22 | 1.02 | 1.05
E fixed | 0.68 | 1.06 | 0.407 | 0.769 | 1.06 | 1.29 | 1.17 | 1.23 | 1.09 | 0.859
F fixed | 1.81 | 1.68 | 1.57 | 1.12 | 0.897 | 1.06 | 0.673 | 0.814 | 0.905 | 0.897
G fixed | 0.332 | 0.406 | 0.514 | 1.27 | 1.22 | 0.557 | 1.19 | 1.08 | 1.22 | 1.12
H fixed | 1.62 | 0.924 | 0.968 | 1.06 | 0.867 | 1.17 | 1.17 | 1.03 | 1.05 | 1.05
I fixed | 1.66 | 1.14 | 2.43 | 1.13 | 0.744 | 1.3 | 0.907 | 0.816 | 0.823 | 0.921
K fixed | 0.379 | 0.581 | 0.302 | 0.866 | 0.903 | 0.461 | 1.03 | 1.01 | 1.02 | 1.12
L fixed | 0.938 | 1.35 | 1.79 | 1.13 | 0.737 | 0.921 | 0.829 | 0.69 | 0.769 | 0.891
M fixed | 1.07 | 1.07 | 1.65 | 0.981 | 0.822 | 0.758 | 0.826 | 0.917 | 0.803 | 0.95
N fixed | 0.428 | 0.954 | 0.415 | 0.758 | 0.999 | 1.35 | 1.25 | 1.34 | 1.02 | 1.24
P fixed | 1.13 | 0.702 | 0.621 | 1.3 | 1.72 | 0.954 | 0.919 | 0.962 | 1.22 | 0.954
Q fixed | 0.794 | 0.963 | 0.796 | 0.955 | 0.999 | 1.09 | 1.24 | 1.05 | 1.2 | 1.19
R fixed | 0.494 | 0.669 | 0.494 | 0.914 | 1.05 | 0.354 | 0.969 | 0.95 | 1.04 | 1.29
S fixed | 0.888 | 0.818 | 0.6 | 1.01 | 1.14 | 0.678 | 1.2 | 1.19 | 0.918 | 0.988
T fixed | 0.98 | 0.762 | 0.774 | 0.836 | 1.02 | 0.77 | 0.995 | 0.916 | 0.768 | 0.741
V fixed | 1.67 | 1.09 | 1.78 | 1 | 0.84 | 1.21 | 0.9 | 0.84 | 0.789 | 0.753
W fixed | 1.78 | 2.51 | 1.87 | 1.26 | 0.908 | 1.15 | 0.748 | 1.01 | 1.23 | 0.949
pThr fixed | 0.496 | 0.942 | 0.298 | 0.559 | 1.03 | 0.884 | 0.846 | 0.938 | 0.771 | 0.696
pTyr fixed | 2.43 | 2.39 | 0.408 | 0.758 | 0.987 | 2.02 | 1.13 | 1.06 | 1.07 | 0.764
